Measurements published in publication PMC5571939.

Key:
[1] = biological target: HL-Munc18c (mouse) (UniProt Q60770); assay: BLI; HL-Munc18c immobilised on Ni-NTA biosensors; de-tagged Sx4 constructs 25–400 nM in solution; BLItz; 1:1 fit
[2] = biological target: Alexa488-labeled VAMP2 E78C (GST-cleaved) (rat) (UniProt P63045); assay: fluorescence polarisation; SNARE complex formation by fluorescence anisotropy, all in solution: 700 nM SNAP23, 100 nM Alexa488-labeled VAMP2, 700 nM Sx4 variant, no Munc18c; 25°C; 25 mM HEPES pH 8.0, 200 mM NaCl, 1 mM TCEP, 2% glycerol
Sequence of Alexa488-labeled VAMP2 E78C (GST-cleaved) (rat) (P63045 1-96 E78C): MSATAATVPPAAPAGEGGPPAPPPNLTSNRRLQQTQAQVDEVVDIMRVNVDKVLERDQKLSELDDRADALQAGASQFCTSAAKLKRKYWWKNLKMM

[3] = biological target: Alexa488-labeled VAMP2 E78C (GST-cleaved) (rat) (UniProt P63045); assay: fluorescence polarisation; SNARE complex formation by fluorescence anisotropy, all in solution: 700 nM SNAP23, 100 nM Alexa488-labeled VAMP2, 700 nM Sx4 variant, in the presence of 500 nM HMunc18c; 25°C; 25 mM HEPES pH 8.0, 200 mM NaCl, 1 mM TCEP, 2% glycerol

Sequence of HL-Munc18c (mouse) (Q60770 whole entry): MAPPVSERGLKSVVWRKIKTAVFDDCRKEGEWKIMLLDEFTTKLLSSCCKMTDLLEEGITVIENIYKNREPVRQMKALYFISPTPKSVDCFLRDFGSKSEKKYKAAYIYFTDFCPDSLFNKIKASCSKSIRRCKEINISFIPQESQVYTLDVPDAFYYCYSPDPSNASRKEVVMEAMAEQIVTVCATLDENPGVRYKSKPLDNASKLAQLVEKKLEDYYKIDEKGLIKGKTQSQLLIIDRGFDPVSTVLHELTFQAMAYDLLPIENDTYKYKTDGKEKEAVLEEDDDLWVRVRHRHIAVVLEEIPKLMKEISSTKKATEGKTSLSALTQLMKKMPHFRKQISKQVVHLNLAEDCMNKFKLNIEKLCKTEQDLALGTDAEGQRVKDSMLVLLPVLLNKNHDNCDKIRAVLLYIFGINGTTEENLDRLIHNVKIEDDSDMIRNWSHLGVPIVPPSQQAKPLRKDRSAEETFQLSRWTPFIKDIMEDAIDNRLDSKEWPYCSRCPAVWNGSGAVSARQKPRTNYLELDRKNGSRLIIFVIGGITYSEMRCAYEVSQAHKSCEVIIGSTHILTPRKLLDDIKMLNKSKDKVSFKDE

Sx4_(1-275) (de-tagged) (from UniProt Q08850 1-275) (domain or fragment)
Kd [1]: 72 nM | koff [1]: 0.022 s⁻¹ | kon [1]: 300000 M⁻¹ s⁻¹

Sx4_(1-275)-T4L (de-tagged) (from UniProt Q08850 1-275; P00720 1-164)
Kd [1]: 31 nM | koff [1]: 0.009 s⁻¹ | kon [1]: 290000 M⁻¹ s⁻¹

Sx4_(30-275)-His (from UniProt Q08850 30-275) (domain or fragment)
kobs of SNARE complex formation with m13 [2]: 0.00049 s⁻¹ | kobs of SNARE complex formation with m13 [3]: 0.00048 s⁻¹

Sx4_(30-275)-T4L-His (from UniProt Q08850 30-275; P00720 1-164)
kobs of SNARE complex formation with m13 [2]: 0.00048 s⁻¹ | kobs of SNARE complex formation with m13 [3]: 0.0005 s⁻¹
